According to the DeepSol protein solubility set:

Assay: soluble on expression in E. coli; label from the status in PepcDB or PDB records

| Sequence | soluble on expression in E. coli |
| --- | --- |
| MGSDKIHHHHHHLLKSSSTVHKGADYWTKRISDQEMPALCSTVRELEKLAKDDVSSLAILGRSVMHDNALTSRILRVANSATYNKGINHVSTVSRAAVMLGFDTLRNICITARLLSSLLENKNLSPNVYQRLLKLMAQSFQAAMLARMMMTGHDEKLREEVFIASLLYRIGESAFWSTGGSFSDALDQKLRDSDSEQDPQAIVRDILGTSFSQLTQNIARSWGLGEVLLKSLSHPDERTPEIRCIALADKLAQLLIEPAEDPNEFAERLKQTADMLNIEVSEFRQKVVDCTKATQKLAIDYGAKVLLDFLPKSADVKASVDQEAKPLVVRASDAAIQLKKLRELTGYALTKTDFNQVMLTALEGILSGVGVDRCGVLLLSPNRQLLQPRIMLGDEAEAMKREFIISLDETMSIFSQCVERKTPFWVADPNAKEWQKSINPALKTKLSKTGFFLAPVSIDTRVIGVFFADRSHSGRSFEPQDYDNFTHFTQLANICFGVSVK | not soluble |
| MGSDKIHHHHHHMFGPGGTQIPNPLRLKRPEGELVWAHATTQERLLGLCDVGCRLKMMRPDLSVMLTWEEDMRPAKLPEGCDIPLGPLTVEQPNDIRNFLDNWSPDVCVWAGGRLRRLLMRHMREREMPALLCDIDADELPSRASRWLPDQRHRLLNGFAAILVPGTEVSERLKRAGVAPERIHPAGRLFQSSTPPSCNDDELAQMQKQFASRPLWLAAHVSLSELPAVLKAHRGALRLLHRLLLVLTVDTFEDLDAARSLLRKEGLSFADWDMGEDPEDHTQVAIGLTENLGLWYRLCPISFLGNSLIRGAQGTNPLDAAALGSAILHGPGVVAHAQAYQRLAALDAAERIHGEEELADAVFRLSSPDRAAEMALAGWQVVTEGAVMTDTLLERIQDLLDQSELSHAPA | not soluble |
| AVVATKVGATVMNANPFTLGHRYLIEQALAQCDHLHLFVVEEEASQFCYQERFALVQHGIADLSNITLHPSSQYIISRATFPDYFLKDSHIVDAAYLELDLRLFRQHIAPALAITHRFIGTEPFCPVTAEYNRKMHYWLQQAVMEADAINVVEIERKKVSNQAISASTVRQLFSERKWQQLLSMVPITTFNFLQKIANEP | not soluble |
| MSLSETASAENLLGAYLKDRRTRLDAAAFGLSGSRRRTPGLRREEVAQRANISPTWYTWLEQGRGGAPSADVLDRIARALMLTDVEREHLFLIGLGRPPEVRYQASDGVSPRLQRVLDALAFSPALVRTATWDVVAWNRAATAVLTDYGAIPPGQRNILRFIFCDPRVRAAQYDWDSVARFVVAAFRADAARAGAVSHVADFVDELCRTSPEFAALWRDNDVRHHGDGTKRLRHPVHGTMSFEYSSFNVEGRSDLSMIVYNPATPEDADRIRTLLAERADEGHHHHHH | soluble |
| MAHHHHHHMFHGMNKTNTWAVILSSSRYFFNLRHTTNALAMYHLCRKHGMDDDHILVFLSDSYACDPRKPNPATIYGAPAQAEQPNLYGCNIRVDYASYDVGVRRFLGVLQGRYDENTPPSRRLDTDENSNIIIYAAGHSAEKFFKFQDSEFMSSTDIADTLMMMWEQRRYRKLVFLVDTCRALSLCLEIKAPNVVCLASSEAHLDSYSHHLDPPSGFTVITRWTFEFLEVLKDSKCRPENGEVTLLQKSFYDFNYGPERLSLPQPLSEPAHFDAVNRPNAVREWKMDEFFCEQDRDKIPVELRYDLF | not soluble |
| MGSDKIHHHHHHMSMNHIRPWRNIERRKSRQIHVGNVPVGGDAPIAVQTMTNTLTTDIKGTIAQVQAAADAGADIVRVSVPDEASARALKEIVRESPVPIVADIHFHYKRGIEAAEAGAACLRINPGNIGDEKRVAEVIKAARDHNCSIRIGVNAGSLEKHLLEKYGEPCPDAMVESGLDHIKILQDHDFHEFKISVKASDVFMSAAAYQMLADATDAPIHLGITEAGGLMSGTIKSAIGLGQLLWMGIGDTLRVSLSADPVEEVKVGFEILKSLGLRHRGVNIISCPSCARQGFDVIKTVETLEERLEHIKTPMSLSIIGCVVNGPGEALMTDVGFTGGGAGSGMVYLAGKASHKMSNDQMIDHIVEEVEKKAAALDAQAAEDMKAAE | not soluble |
| MLDLQGLEEIANVQMQLENIISKLNIPIIQKGVFDNEGYLKSIMRGMRDYICFKTSKKKYKTIKAQNVIIHPGSLISTDSVKYFVAGEIIETTKMYARSIGVLKKEWIDDIILNEEFKHNDISSKELEHHHHHH | not soluble |
| MAHHHHHHMESIKAKCTAKNLVNEKPAQKTPLSISISEKHKAQLREAFDLFDSEGTGRIKALDVKVALCALGYDVSKEELTQLLKQVGGSIVGGVDFNEFYCVLLAKMMQRESRSEAIRAFRLIDVAEKGYISVDDLRPIADSLEMDLTDDELAEMVLFAHPPVGFGKNENDIKEPLTVSEEEFLKLMGRAHVY | soluble |
| MGSSHHHHHHSSGLVPRGSHMEGRLLLLETPGNTRMSLAYDEAIYRSFQYGDKPILRFYRHDRSVIIGYFQVAEEEVDLDYMKKNGIMLARRYTGGGAVYHDLGDLNFSVVRSSDDMDITSMFRTMNEAVVNSLRILGLDARPGELNDVSIPVNKKTDIMAGEKKIMGAAGAMRKGAKLWHAAMLVHTDLDMLSAVLKVPDEKFRDKIAKSTRERVANVTDFVDVSIDEVRNALIRGFSETLHIDFREDTITEKEESLARELFDKKYSTEEWNMGLLRKEVV | soluble |
| MYKAFYGLSDNPFSIAPNPHYLFLSDRHREALAHLTYGLGETGGFVLLTGEVGTGKTTVSRCLLGQLPDNTDTAFILNPSLTELELLATLCDELKISYGENPTLKQLTDHLSRFLLANHEKGRKTVLIIDEAQHLRAEVLEQLRLLTNLETDTKKLLQVILIGQPELQLLLKRQELRQLAQRITARYHLLPLNEDEITLYVLHRLQVAGRFEPLFTRKAIKVLHKYSGGIPRLINLLCERALMAGYAQSKVPIDHHMVRQAAAEVLGEEKPSQNKFLWPSAIAAALVLTFGVSYWLFTDHAVVATVANENVTQPKQTVIAENAVQQSQTALTNTAPAITLAQTPAAPDPNLRVLQEAIKQSRQIDTAFAGLFNVWGKVPFKGLTACQSAFEQGLSCYQQQGNWMSLTRLNYPAVVYLVDDNQQDFYGAVIAVDGEQLLMQLGEQQLWVERTWFNQHFSGTFEILWQAPNLPMMEISQKSSPGQLQWLENALAHVAKRPSRRVSQFDLKLENDLKAFQSQHGLKADGIAGNQTLVRLNLYLSDQGPRLTDNGAQS | not soluble |
| EDATPETVEYRQLSAADLLADTHLLREVFGLLVLAHYRTEPSDLARLLDAPNLTVRALTHEGHVVAVALLAQEGGLSASTRATMYEGGRVRGNMLPDVLSTQLRDEAAGVPVGQRVLRIATHAAVRSRGLGSKLLSEIRAEFADHVDWVGVSYGATPELVRFWADNGYNTVHLATSRNATSGEYSVVMLDP | not soluble |
| MAHHHHHHMDPYPPSRVEVTVDDSFGRLEGLAEEHSIIEETWRKLMKGLERKILHNGLKFRLHNVVQYDNGKCHLQLGITDYKSSMGVATNVDYFLRSTSDGGTDRRKYLARALGIECFTTTSDEKAVMFCRSSLVSEYPGYYCFPGGHPEPQDILCQLPLSGPATGNHNNIDHNHNSVQNSDLLNDRLRREEAVSQLSGVNPEVIVQHLFDSAVMEVADELGVERTACRNRGLLSIVENMKNMKPDACFWVEVNQTAAEVQARFDSRVGFDAFESVPHSLVVVHLDDIVDCEGAELFIKDCLGGKVTPPSVACWLHGMACYRSLRGTLGKAQTHSFA | not soluble |
| MGSDKIHHHHHHMSLLALFSLFGCDNAANTATICKNNPELCDDLHRDSWCRYERADLIQKRYTLKNTPSPTGKQIYQHLINLENYSKCIELAAGVQHIMHPERTNDRVRAFGISAQNLAQLRETTKDNPDLYLSYYHWIRLNDQAALSRVIKAQQAGSIKDLEILASLASYYQKSDLDKAKALYLQLLDSADPDSFNPDWLLGLASIYHQQNDLEKTYLFSKANVLMTRNTASDAKMNALINGNQQLAHFLDEQADTLVEHLKNGDYASSEIRAQLNTSS | not soluble |
| MGSDKIHHHHHHMSKPAITLWSDAHFFSPYVLSAWVALQEKGLSFHIKTIDLDSGEHLQPTWQGYGQTRRVPLLQIDDFELSESSAIAEYLEDRFAPPTWERIYPLDLENRARARQIQAWLRSDLMPIREERPTDVVFAGAKKAPLTAEGKASAEKLFAMAEHLLVLGQPNLFGEWCIADTDLALMINRLVLHGDEVPERLVDYATFQWQRASVQRFIALSAKQSG | not soluble |
| MAAERLDPWGAVEIKDYDRLLRTFGIRPFSEVLPLLRKAGMEPSFLMRRGIIFGHRDFDKILEAKARGERVAVLTGFMPSGKFHFGHKLTVDQLIYLQKNGFKVFVAIADAEAFAVRRIGREEAVRIAVEEYIANMIALGLDPKDTEFYFQTNRGTPYFRLIQLFSGKVTAAEMEAIYGELTPAKMMASLTQAADILHVQLDEYGGYRHVVVPVGADQDPHLRLTRDLADRMAGVVELERPASTYHKLQPGLDGRKMSSSRPDSTIFLTDPPEVARNKLFRALTGGRATAEEQRRLGGVPEVCSVYHMDLYHLMPDDGEVKHIYTSCRLGKILCGECKQIAWEKLERFLAEHQSRLEKAKTIAWKLVEPPRF | soluble |
| MKTFIWNSNYETGVAKVDDQHQCLVEIINEYSHLLANNTTTETDIELTLNKLIDYTKFHFKDEEQLMYSVGLDTRHITHHEKLHRDILDEISTLLSDQVTDKLSIARYILDLIIHWLVYHILGTDMNMAKLEHHHHHH | not soluble |
| MGSDKIHHHHHHMELRGIWLTNVDSKILHSRDKIAEAMNFLVDTGFNVIFPVVWNKAFTLYPSQLMETTFGQEIDPLYKGRDPLAEVIIEAQRVGLKVIPWFEYGFVSSYKQNGGLILSKKPEWIARERKGNLLVKNGFEWMNALDEEVQNFLIDLVLEVVRNYDIDGIQGDDRMPAFPSEGGYDAKTVGRYRQQFSCHPPQNNKDHKWLQWRANILTDFLARLYGKVKAVKPNILVSMAPSFYKWGFNEYLQDYPTWINREVVDIVHPQLYRRDFSSYKSLVEQLVKQQFIATHLNKIFPGILIKIGSYRISMDYLLEAIAYNRSVGINGEVLFFYEGLRENNDVLAKALRKYVYN | not soluble |
| MAHHHHHHMAITLPKLKYALNALSPHISEETLSFHYNKHHAGYVNKLNGLIKDTPLANKSLTDILKESTGAIFNNAAQIWNHSFYWDSMGPNCGGEPHGEIKEKIQEDFGSFNNFKDQFSNVLCGHFGSGWGWLALNKNNKLVILQTHDAGNPIKENTGIPILTCDVWEHAYYIDYRNDRLSYVKAWWNLVNWNFANENLKNALNK | soluble |
| MGHHHHHHSHMSQHGQSCLSLAGTIDCSVPDILLKSGVIGLAQWLTPVIPALWETEAGGSLEVRSSRPAWPTWRNPISTKNTKISQTWWRMPVVLATWEAEAGESVNLGGRGCSELRRCRCTPAWATRAKLHLRKNKNKNNGVTKT | not soluble |
| MQNDNAKPISISKQLVYDAFLRVKANRGSAGIDKVTLEDYEKNLRGNLYKLWNRMSSGSYFPPSVKLVEIPKSTGGKRPLGIPTVSDRVAQMAVVMLITPSIEPCFHEDSYAYRPHRSAHDAVGKARERCWKYAWVLDMDISKFFDTIDHELLLKALKRHTQEKWVLMYIERWLKVPYEKSDGSQVDRALGVPQGSVIGPVLANLFLHYTFDKWMEKNFPRVPFERYADDTICHCHSLKQAEYMQAMIQQRFECCRLRLNEEKTKIVYCKSSRQKECYPNVTFDFLGFTFQPRESVDKYGNRFTGFLPAISRKSMKRINETMRSWHLNRHSNLTLEHLASDINPIVRGWMTYYGKFYPTRLKWFMQTLNGRLARWVMCKFERYRHRFYPAQEWLARIAEKEGLIFYHWKCGALPRFTNKEKVSSQLIMVK | soluble |
